T1: human recombinant C-reactive protein (human), P02741
T1 chain: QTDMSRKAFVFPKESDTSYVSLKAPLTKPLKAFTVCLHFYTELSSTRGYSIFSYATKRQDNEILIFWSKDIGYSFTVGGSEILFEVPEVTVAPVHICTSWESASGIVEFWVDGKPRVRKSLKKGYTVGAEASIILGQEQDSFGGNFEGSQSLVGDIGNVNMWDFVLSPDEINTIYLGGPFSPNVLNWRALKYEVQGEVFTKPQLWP

B1: Tryptophan RNA-binding attenuation protein (TRAP) from Bacillus stearothermophilus (natural protein, UniProt Q9X6J6 1-74, looked up)
chain: MYTNSDFVVIKALEDGVNVIGLTRGADTRFHHSEKLDKGEVLIAQFTEHTSAIKVRGKAYIQTRHGVIESEGKK
notes: also called TRAP bst; source: Mark Foster's lab; copies: 11
B2: human recombinant C-reactive protein, P02741 19-224 (natural protein)
chain: T1 chain
B3: phosphorylase B (enzyme, UniProt P00489 1-843, looked up)
chain: MSRPLSDQEKRKQISVRGLAGVENVTELKKNFNRHLHFTLVKDRNVATPRDYYFALAHTVRDHLVGRWIRTQQHYYEKDPKRIYYLSLEFYMGRTLQNTMVNLALENACDEATYQLGLDMEELEEIEEDAGLGNGGLGRLAACFLDSMATLGLAAYGYGIRYEFGIFNQKICGGWQMEEADDWLRYGNPWEKARPEFTLPVHFYGRVEHTSQGAKWVDTQVVLAMPYDTPVPGYRNNVVNTMRLWSAKAPNDFNLKDFNVGGYIQAVLDRNLAENISRVLYPNDNFFEGKELRLKQEYFVVAATLQDIIRRFKSSKFGCRDPVRTNFDAFPDKVAIQLNDTHPSLAIPELMRVLVDLERLDWDKAWEVTVKTCAYTNHTVLPEALERWPVHLLETLLPRHLQIIYEINQRFLNRVAAAFPGDVDRLRRMSLVEEGAVKRINMAHLCIAGSHAVNGVARIHSEILKKTIFKDFYELEPHKFQNKTNGITPRRWLVLCNPGLAEIIAERIGEEYISDLDQLRKLLSYVDDEAFIRDVAKVKQENKLKFAAYLEREYKVHINPNSLFDVQVKRIHEYKRQLLNCLHVITLYNRIKKEPNKFVVPRTVMIGGKAAPGYHMAKMIIKLITAIGDVVNHDPVVGDRLRVIFLENYRVSLAEKVIPAADLSEQISTAGTEASGTGNMKFMLNGALTIGTMDGANVEMAEEAGEENFFIFGMRVEDVDRLDQRGYNAQEYYDRIPELRQIIEQLSSGFFSPKQPDLFKDIVNMLMHHDRFKVFADYEEYVKCQERVSALYKNPREWTRMVIRNIATSGKFSSDRTIAQYAREIWGVEPSRQRLPAPDEKIP
notes: phosphorylase B, dimer, 197 kDa; This catalogue product is recalled to be from rabbit muscle (surmise); also called PhosB; source: bought: Millipore Sigma (P/N P6635)

Tests used:
Test in all cases: native MS; nanoESI on a Waters SELECT Series Cyclic IMS (Q-IM-TOF), gentle tuning at low cone voltage; quadrupole-selected charge-reduced precursor, surface-induced dissociation and ion mobility; 160/40 ammonium acetate/triethylammonium acetate; CRP 1 uM, SA 2-3 uM, PhosB 4 uM; TRAP ~1.5 uM complex in 600 mM ammonium acetate with TEAA added for 15+
[1] = molecular target: streptavidin (UniProt P22629)
[2] = molecular target: the molecule itself
[3] = molecular target: T1, human recombinant C-reactive protein …; conditions: remark: other sources report otherwise

Molecule | stoichiometry N [2] | also measured
streptavidin (from UniProt P22629 25-183) (natural protein) |  | stoichiometry N [1]: 4
B1 | 11 | 
B2 |  | stoichiometry N [3]: 5
B3 | 2 | 

— publication PMC12318544, “Roughhousing with Ions: Surface-Induced Dissociation and Electron Capture Dissociation as Diagnostics of Q-Cyclic IMS-TOF Instrument Tuning Gentleness” (Journal of the American Society for Mass Spectrometry, 2024)
